How the values were obtained:
Kv1.1 = target: T1, Kv1.1 (Homo sapiens, UniProt Q09470); assay: cell-based; format: cell-based; conditions: 100% = no change, <100% = inhibition
T1 construct: host or cells: HEK293 or CHO
Procedure, shortened: (§1)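 Transfected HEK293 or CHO cells were exposed for at least 5 min to peptides at 200 nM and 20 μM final, tested in duplicate, in HEPES-buffered physiological saline. Activation was taken as peptide-plus-agonist current over control current ×100, and inhibition as 1 minus that ratio ×100. Each channel's control was its own reference compound.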

Kv1.3 = target: T2, Kv1.3 (Homo sapiens, UniProt P22001); assay: cell-based; format: cell-based; conditions: 100% = no change, <100% = inhibition
T2 construct: host or cells: HEK293 or CHO
Procedure, shortened: as §1

Kv1.2 = target: T3, Kv1.2 (Homo sapiens, UniProt P16389); assay: cell-based; format: cell-based; conditions: 100% = no change, <100% = inhibition
T3 construct: host or cells: HEK293 or CHO
Procedure, shortened: as §1

α3β4 = target: T4, α3β4 (Homo sapiens, UniProt P30926+P32297); assay: Ion channel panel (IonWorks Barracuda): α3β4; format: cell-based; conditions: 100% = no change, <100% = inhibition
T4 construct: host or cells: HEK293 or CHO
Procedure, shortened: as §1

TRPA1 = target: T5, TRPA1 (Homo sapiens, UniProt O75762); assay: Ion channel panel (IonWorks Barracuda): TRPA1; format: cell-based; conditions: 100% = no change, <100% = inhibition
T5 construct: host or cells: HEK293 or CHO
Procedure, shortened: as §1

Cav2.1 = target: T6, Cav2.1 (Homo sapiens, UniProt O00555); assay: cell-based; conditions: 100% = no change, <100% = inhibition
T6 construct: host or cells: HEK293 or CHO
Procedure, shortened: as §1

Cav2.2 = target: T7, Cav2.2 (Homo sapiens, UniProt Q00975); assay: cell-based; conditions: 100% = no change, <100% = inhibition
T7 construct: host or cells: HEK293 or CHO
Procedure, shortened: as §1

Kv2.1 = target: T8, Kv2.1 (Homo sapiens, UniProt Q14721); assay: cell-based; conditions: 100% = no change, <100% = inhibition
T8 construct: host or cells: HEK293 or CHO
Procedure, shortened: as §1

Nav1.7 = target: T9, Nav1.7 (Homo sapiens, UniProt Q15858); assay: cell-based; format: cell-based; conditions: 100% = no change; for Activity of Nav1.7 with peptide, expressed as a percentage of the reference compound: peptide at 0.2 μM; for Activity of Nav1.7 with peptide (percentage of the reference compound): peptide at 20 μM
T9 construct: host or cells: HEK293 or CHO
T9 sequence (Q15858 whole entry): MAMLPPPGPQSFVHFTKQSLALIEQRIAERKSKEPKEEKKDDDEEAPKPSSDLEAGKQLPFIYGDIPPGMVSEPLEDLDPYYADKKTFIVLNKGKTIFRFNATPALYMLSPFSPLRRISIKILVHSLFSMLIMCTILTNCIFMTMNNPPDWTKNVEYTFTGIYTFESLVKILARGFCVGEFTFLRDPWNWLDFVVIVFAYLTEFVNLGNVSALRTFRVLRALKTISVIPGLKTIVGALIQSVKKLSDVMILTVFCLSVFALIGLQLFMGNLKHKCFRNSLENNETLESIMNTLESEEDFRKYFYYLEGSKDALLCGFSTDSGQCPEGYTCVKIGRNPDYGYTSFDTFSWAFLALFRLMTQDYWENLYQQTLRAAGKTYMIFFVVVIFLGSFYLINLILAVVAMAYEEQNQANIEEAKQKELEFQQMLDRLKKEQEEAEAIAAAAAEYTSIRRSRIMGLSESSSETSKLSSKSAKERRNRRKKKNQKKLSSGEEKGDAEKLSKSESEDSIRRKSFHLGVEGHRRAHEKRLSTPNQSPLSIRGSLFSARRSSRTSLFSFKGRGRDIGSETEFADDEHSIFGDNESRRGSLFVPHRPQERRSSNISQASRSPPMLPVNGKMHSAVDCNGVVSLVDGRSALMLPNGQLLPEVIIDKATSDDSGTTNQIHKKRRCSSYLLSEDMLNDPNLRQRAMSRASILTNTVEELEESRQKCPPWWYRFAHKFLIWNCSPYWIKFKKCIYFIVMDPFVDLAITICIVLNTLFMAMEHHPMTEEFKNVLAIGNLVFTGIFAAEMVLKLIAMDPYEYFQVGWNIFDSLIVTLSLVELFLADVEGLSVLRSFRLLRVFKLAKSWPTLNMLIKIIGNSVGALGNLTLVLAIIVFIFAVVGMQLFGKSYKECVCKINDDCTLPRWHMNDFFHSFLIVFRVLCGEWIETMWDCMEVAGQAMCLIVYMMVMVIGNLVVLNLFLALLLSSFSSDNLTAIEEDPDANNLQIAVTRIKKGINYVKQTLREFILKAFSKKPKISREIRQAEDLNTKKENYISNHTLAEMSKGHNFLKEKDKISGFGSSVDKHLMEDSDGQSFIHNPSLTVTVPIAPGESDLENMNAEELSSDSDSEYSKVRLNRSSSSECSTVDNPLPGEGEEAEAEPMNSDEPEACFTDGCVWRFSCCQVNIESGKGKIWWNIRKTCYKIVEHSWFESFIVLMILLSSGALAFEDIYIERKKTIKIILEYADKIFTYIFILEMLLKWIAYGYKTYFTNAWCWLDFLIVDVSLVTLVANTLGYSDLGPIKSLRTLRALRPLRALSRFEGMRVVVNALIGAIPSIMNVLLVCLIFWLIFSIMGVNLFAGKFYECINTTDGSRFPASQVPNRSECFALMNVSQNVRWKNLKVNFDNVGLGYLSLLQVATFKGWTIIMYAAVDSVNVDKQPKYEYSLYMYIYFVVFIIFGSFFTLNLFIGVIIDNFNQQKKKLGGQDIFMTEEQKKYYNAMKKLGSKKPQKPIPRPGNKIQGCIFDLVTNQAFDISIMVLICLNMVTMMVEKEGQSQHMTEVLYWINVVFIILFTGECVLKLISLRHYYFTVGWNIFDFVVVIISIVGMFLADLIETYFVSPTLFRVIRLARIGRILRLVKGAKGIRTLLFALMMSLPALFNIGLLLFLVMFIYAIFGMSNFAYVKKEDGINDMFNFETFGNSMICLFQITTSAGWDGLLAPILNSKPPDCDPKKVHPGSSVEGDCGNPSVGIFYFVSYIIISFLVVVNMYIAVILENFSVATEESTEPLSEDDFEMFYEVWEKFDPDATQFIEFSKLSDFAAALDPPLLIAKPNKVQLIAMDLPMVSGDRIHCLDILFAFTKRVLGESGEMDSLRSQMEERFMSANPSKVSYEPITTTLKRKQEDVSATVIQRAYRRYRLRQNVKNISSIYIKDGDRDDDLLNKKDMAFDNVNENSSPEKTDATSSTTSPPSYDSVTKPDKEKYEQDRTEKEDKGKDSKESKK

5HT3a = target: T10, 5HT3a (Homo sapiens, UniProt P46098); assay: Ion channel panel (IonWorks Barracuda): 5HT3a; format: cell-based
T10 construct: host or cells: HEK293 or CHO
T10 sequence (P46098 whole entry, looked up): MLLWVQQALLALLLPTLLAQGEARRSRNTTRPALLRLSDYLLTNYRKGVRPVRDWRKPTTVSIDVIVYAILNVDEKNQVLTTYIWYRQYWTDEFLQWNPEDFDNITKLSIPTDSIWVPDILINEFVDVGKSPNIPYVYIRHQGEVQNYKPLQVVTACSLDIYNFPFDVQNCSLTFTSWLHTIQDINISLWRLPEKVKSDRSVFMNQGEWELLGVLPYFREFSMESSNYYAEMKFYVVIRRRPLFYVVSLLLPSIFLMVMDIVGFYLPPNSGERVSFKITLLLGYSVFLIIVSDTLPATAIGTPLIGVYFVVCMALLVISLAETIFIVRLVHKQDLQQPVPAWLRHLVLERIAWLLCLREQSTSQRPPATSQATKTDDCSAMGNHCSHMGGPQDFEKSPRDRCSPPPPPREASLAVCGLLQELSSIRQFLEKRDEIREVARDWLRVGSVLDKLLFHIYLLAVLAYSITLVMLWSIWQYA
Procedure, shortened: as §1

GABA = assay: Ion channel panel (IonWorks Barracuda): GABA; format: cell-based; conditions: 100% = no change, <100% = inhibition
Procedure, shortened: as §1

Kir2.1 = target: T11, Kir2.1 (Homo sapiens, UniProt P63252); assay: Ion channel panel (IonWorks Barracuda): Kir2.1; format: cell-based; conditions: 100% = no change, <100% = inhibition
T11 construct: host or cells: HEK293 or CHO
T11 sequence (P63252 whole entry): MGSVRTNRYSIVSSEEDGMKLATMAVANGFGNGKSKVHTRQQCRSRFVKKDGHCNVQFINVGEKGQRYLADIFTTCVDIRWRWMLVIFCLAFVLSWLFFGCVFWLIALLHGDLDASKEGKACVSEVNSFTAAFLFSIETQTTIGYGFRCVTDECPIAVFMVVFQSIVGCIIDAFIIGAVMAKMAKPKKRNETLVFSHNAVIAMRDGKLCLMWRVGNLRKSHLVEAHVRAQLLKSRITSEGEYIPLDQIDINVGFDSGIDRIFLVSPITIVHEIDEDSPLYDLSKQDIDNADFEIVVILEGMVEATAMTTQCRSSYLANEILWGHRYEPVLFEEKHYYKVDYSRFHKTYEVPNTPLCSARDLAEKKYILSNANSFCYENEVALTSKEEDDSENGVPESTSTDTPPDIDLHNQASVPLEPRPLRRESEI
Procedure, shortened: as §1

hERG = hERG (Homo sapiens, UniProt Q12809); assay: in vitro; conditions: 100% = no change, <100% = inhibition
Procedure, shortened: as §1

Nav1.5 = Nav1.5 (Homo sapiens, UniProt Q14524); assay: in vitro; conditions: 100% = no change; for Activity of Nav1.5 with peptide, expressed as a percentage of the reference compound: peptide at 0.2 μM; for Activity of Nav1.5 with peptide (percentage of the reference compound): peptide at 20 μM
Sequence of Nav1.5 (Q14524 whole entry): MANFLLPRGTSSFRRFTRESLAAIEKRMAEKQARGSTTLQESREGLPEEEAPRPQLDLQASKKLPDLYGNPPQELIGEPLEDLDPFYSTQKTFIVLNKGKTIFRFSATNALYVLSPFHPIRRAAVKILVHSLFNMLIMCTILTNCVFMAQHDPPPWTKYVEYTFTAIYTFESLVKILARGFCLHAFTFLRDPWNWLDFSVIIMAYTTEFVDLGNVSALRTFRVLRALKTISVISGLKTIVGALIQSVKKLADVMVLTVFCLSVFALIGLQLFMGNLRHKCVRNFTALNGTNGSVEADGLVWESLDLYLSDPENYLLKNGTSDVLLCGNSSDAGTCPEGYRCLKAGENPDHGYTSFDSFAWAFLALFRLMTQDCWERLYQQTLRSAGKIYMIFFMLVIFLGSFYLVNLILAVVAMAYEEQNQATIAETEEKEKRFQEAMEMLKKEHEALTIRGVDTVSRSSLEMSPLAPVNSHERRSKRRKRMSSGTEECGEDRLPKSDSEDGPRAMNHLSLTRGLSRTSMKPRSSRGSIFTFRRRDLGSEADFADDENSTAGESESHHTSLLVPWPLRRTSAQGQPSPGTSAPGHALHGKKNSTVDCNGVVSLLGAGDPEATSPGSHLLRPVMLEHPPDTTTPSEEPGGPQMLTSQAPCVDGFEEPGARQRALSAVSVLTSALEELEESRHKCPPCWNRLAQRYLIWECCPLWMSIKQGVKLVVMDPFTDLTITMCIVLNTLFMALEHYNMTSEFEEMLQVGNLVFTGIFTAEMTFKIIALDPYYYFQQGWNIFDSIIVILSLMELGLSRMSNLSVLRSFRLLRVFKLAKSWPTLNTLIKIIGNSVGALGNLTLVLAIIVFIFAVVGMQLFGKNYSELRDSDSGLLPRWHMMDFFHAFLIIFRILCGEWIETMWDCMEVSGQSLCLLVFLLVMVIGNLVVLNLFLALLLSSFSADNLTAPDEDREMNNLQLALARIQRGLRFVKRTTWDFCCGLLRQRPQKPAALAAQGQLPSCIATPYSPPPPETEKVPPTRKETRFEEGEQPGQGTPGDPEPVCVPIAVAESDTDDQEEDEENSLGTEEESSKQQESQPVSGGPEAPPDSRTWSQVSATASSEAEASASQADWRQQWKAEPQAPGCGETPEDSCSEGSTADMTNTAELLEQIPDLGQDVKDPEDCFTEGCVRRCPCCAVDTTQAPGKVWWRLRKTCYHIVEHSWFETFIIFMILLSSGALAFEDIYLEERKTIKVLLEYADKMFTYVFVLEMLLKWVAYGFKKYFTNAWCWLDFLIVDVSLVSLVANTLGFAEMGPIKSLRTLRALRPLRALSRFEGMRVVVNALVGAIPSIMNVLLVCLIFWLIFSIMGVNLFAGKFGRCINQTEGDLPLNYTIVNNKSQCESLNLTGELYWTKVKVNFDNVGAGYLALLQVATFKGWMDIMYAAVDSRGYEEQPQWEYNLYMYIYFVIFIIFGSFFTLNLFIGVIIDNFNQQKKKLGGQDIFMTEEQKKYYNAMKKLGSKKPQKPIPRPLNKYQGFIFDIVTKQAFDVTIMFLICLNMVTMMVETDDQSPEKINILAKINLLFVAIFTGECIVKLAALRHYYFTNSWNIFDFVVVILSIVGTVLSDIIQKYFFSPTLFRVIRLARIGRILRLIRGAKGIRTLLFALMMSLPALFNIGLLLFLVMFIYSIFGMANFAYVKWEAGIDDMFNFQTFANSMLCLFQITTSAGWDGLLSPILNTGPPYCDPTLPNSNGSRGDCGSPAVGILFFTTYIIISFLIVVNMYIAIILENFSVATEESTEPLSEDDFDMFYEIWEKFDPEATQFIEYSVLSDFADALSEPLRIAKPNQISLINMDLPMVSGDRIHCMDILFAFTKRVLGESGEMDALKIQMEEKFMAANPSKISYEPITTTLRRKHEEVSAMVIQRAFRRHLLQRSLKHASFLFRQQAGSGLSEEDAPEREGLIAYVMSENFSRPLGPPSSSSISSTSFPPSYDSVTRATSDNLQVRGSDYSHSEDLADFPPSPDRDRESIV
Procedure, shortened: as §1

TRPV1 = target: T12, TRPV1 (Homo sapiens, UniProt Q8NER1); assay: Ion channel panel (IonWorks Barracuda): TRPV1; format: cell-based; conditions: 100% = no change, <100% = inhibition
T12 construct: host or cells: HEK293 or CHO
Procedure, shortened: as §1

α4β2 = target: T13, α4β2 (Homo sapiens, UniProt P17787+P43681); assay: Ion channel panel (IonWorks Barracuda): α4β2; format: cell-based; conditions: 100% = no change, <100% = inhibition
T13 construct: host or cells: HEK293 or CHO
Procedure, shortened: as §1

NR2A = target: T14, NR2A (Homo sapiens, UniProt Q12879); assay: Ion channel panel (IonWorks Barracuda): NR2A; format: cell-based; conditions: 100% = no change, <100% = inhibition
T14 construct: host or cells: HEK293 or CHO
Procedure, shortened: as §1

NR2B = target: T15, NR2B (Homo sapiens, UniProt Q13224); assay: Ion channel panel (IonWorks Barracuda): NR2B; format: cell-based; conditions: 100% = no change, <100% = inhibition
T15 construct: host or cells: HEK293 or CHO
Procedure, shortened: as §1

[1] = first of two Nav1.7 columns (probably TP1)
[2] = second of two Nav1.7 columns (probably TP2)
[3] = first of two Nav1.5 columns (probably TP1)
[4] = second of two Nav1.5 columns (probably TP2)

T1 sequence (Q09470 whole entry): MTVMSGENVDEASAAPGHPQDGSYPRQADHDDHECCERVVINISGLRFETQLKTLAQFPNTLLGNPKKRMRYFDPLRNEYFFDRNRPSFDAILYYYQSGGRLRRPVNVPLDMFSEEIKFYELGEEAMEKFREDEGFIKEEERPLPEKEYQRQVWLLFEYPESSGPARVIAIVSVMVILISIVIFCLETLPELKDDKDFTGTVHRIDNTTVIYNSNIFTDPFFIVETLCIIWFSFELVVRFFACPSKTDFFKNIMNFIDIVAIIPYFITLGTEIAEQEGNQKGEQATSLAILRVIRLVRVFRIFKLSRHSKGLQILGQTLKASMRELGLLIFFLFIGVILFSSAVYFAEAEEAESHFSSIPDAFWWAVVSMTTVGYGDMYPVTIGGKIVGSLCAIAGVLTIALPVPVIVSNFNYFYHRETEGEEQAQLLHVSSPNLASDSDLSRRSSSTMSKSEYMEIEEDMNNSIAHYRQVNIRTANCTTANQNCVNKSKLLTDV

39 (GSGVPTDVKCRGSPQCIQPCKDAGMRFGKCMNGKCHCTPK) [compound 39]
Activity of Kv1.1 with peptide, expressed as a percentage of the reference compound (Kv1.1; peptide at 0.2 μM): 37%
Activity of Kv1.1 with peptide (percentage of the reference compound) (Kv1.1; peptide at 20 μM): 21%
Activity of Kv1.3 with peptide, expressed as a percentage of the reference compound (Kv1.3; peptide at 0.2 μM): 7%
Activity of Kv1.3 with peptide (percentage of the reference compound) (Kv1.3; peptide at 20 μM): 1%
Activity of Kv1.2 with peptide, expressed as a percentage of the reference compound (Kv1.2; peptide at 0.2 μM): 96%
Activity of Kv1.2 with peptide (percentage of the reference compound) (Kv1.2; peptide at 20 μM): 84%
Activity of a3b4 with peptide, expressed as a percentage of the reference compound (α3β4; peptide at 0.2 μM): 99%
Activity of a3b4 with peptide (percentage of the reference compound) (α3β4; peptide at 20 μM): 93%
Activity of TRPA1 with peptide, expressed as a percentage of the reference compound (TRPA1; peptide at 0.2 μM): 136%
Activity of TRPA1 with peptide (percentage of the reference compound) (TRPA1; peptide at 20 μM): 92%
Activity of Cav2.1 with peptide, expressed as a percentage of the reference compound (Cav2.1; peptide at 0.2 μM): 96%
Activity of Cav2.1 with peptide (percentage of the reference compound) (Cav2.1; peptide at 20 μM): 96%
Activity of Cav2.2 with peptide, expressed as a percentage of the reference compound (Cav2.2; peptide at 0.2 μM): 117%
Activity of Cav2.2 with peptide (percentage of the reference compound) (Cav2.2; peptide at 20 μM): 98%
Activity of Kv2.1 with peptide, expressed as a percentage of the reference compound (Kv2.1; peptide at 0.2 μM): 118%
Activity of Kv2.1 with peptide (percentage of the reference compound) (Kv2.1; peptide at 20 μM): 102%
Activity of Nav1.7 with peptide, expressed as a percentage of the reference compound (Nav1.7; [1]): 42%
Activity of Nav1.7 with peptide, expressed as a percentage of the reference compound (Nav1.7; [2]): 39%
Activity of Nav1.7 with peptide (percentage of the reference compound) (Nav1.7; [1]): 108%
Activity of Nav1.7 with peptide (percentage of the reference compound) (Nav1.7; [2]): 110%
Activity of 5HT3a with peptide (percentage of the reference compound) (5HT3a): 55%
Activity of 5HT3a with peptide, expressed as a percentage of the reference compound (5HT3a): 67%
Activity of GABA with peptide, expressed as a percentage of the reference compound (GABA; peptide at 0.2 μM): 111%
Activity of GABA with peptide (percentage of the reference compound) (GABA; peptide at 20 μM): 108%
Activity of Kir2.1 with peptide, expressed as a percentage of the reference compound (Kir2.1; peptide at 0.2 μM): 110%
Activity of Kir2.1 with peptide (percentage of the reference compound) (Kir2.1; peptide at 20 μM): 98%
Activity of hERG with peptide, expressed as a percentage of the reference compound (hERG; peptide at 0.2 μM): 103%
Activity of hERG with peptide (percentage of the reference compound) (hERG; peptide at 20 μM): 84%
Activity of Nav1.5 with peptide, expressed as a percentage of the reference compound (Nav1.5; [3]): 108%
Activity of Nav1.5 with peptide, expressed as a percentage of the reference compound (Nav1.5; [4]): 105%
Activity of Nav1.5 with peptide (percentage of the reference compound) (Nav1.5; [3]): 111%
Activity of Nav1.5 with peptide (percentage of the reference compound) (Nav1.5; [4]): 114%
Activity of TRPV1 with peptide, expressed as a percentage of the reference compound (TRPV1; peptide at 0.2 μM): 95%
Activity of TRPV1 with peptide (percentage of the reference compound) (TRPV1; peptide at 20 μM): 83%
Activity of a4b2 with peptide, expressed as a percentage of the reference compound (α4β2; peptide at 0.2 μM): 98%
Activity of a4b2 with peptide (percentage of the reference compound) (α4β2; peptide at 20 μM): 91%
Activity of NR2A with peptide, expressed as a percentage of the reference compound (NR2A; peptide at 0.2 μM): 106%
Activity of NR2A with peptide (percentage of the reference compound) (NR2A; peptide at 20 μM): 82%
Activity of NR2B with peptide, expressed as a percentage of the reference compound (NR2B; peptide at 0.2 μM): 102%
Activity of NR2B with peptide (percentage of the reference compound) (NR2B; peptide at 20 μM): 85%
